In experiment [1] the target is T1, DVL1 binding to FZD4 (Homo sapiens, UniProt O14640).
T1 construct: host or cells: HEK293
T1 sequence (O14640 1-695): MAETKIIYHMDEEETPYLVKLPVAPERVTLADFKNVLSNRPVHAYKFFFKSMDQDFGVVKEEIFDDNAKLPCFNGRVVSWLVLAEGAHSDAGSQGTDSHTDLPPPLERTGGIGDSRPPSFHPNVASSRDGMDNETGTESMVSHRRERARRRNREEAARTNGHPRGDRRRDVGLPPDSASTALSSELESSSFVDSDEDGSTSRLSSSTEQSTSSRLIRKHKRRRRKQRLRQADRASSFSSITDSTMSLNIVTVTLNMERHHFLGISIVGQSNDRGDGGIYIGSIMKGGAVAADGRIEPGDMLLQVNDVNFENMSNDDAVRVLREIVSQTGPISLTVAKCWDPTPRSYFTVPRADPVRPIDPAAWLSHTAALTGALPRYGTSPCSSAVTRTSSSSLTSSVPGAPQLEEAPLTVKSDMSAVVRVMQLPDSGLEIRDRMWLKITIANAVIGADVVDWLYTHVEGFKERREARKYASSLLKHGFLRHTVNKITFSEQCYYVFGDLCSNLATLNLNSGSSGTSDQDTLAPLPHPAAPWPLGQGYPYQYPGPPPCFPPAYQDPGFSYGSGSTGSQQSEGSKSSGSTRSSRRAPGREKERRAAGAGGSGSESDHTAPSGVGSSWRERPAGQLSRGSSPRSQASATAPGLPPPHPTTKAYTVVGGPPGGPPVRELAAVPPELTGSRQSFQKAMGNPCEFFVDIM
In words: Inhibition of DVL1 (DVL-GFP) recruitment by FZD4 at the plasma membrane of HEK293 cells. Type of experiment: cell-based. The conditions noted are these: HEK293 cells co-transfected with HA-FZD4 and GFP-DVL-1; 24 h treatment; read-out: EC50 ± SD DVL1 Binding Inhibition. On the procedure: HEK293 cells were seeded in 96-well tissue culture plates at a density of 5 × 10 ^3/well. After 16–24 h seeding, cells were co-transfected with HA-FZD4-wt (0.04 µg/well) and GFP-tagged DVL-1 (0.04 µg/well) using PEI (0.25 µL/well) in a final volume of 100 µL/well. After 24 h of transfection, the medium was replaced and supplemented with the indicated compounds diluted in culture medium. After 24 h of treatment, cells were fixed in 3.7% formaldehyde freshly diluted in PBS for 30 min at RT, quenched with 0.1 M glycine/PBS for 30 min at RT, and washed with PBS. Samples were observed under a Leica confocal fluorescent microscope. Inhibition of DVL recruitment was measured by counting the percentage of cells losing GFP-DVL-1 localization on the PM. Experiments were performed in triplicate, and the standard deviations are indicated.
The crucial role played by PDZ domains in the spreading of cellular signals and their aberrant activations in many human diseases makes the PDZ domains very attractive targets for drug discovery. […] To identify new DVL1 inhibitors, we followed a virtual screening approach by fixing as the main filter a pharmacophoric model. We speculated that compound 2, the recently reported inhibitor of NHERF1 PDZ1 domain [26], may be able also to bind the DVL PDZ domain. The activity of compound 2 was assayed in HEK293 cells transiently expressing both HA-tagged-FZD4 (HA-FZD4) and the chimeric construct DVL-GFP. In the absence of HA-FZD4, DVL-GFP is localized in punctate intracellular structures known as signalosomes. In the presence of FZD-4 expression, DVL-GFP is recruited on the PM of the cell showing a drastic change in localization. As previously reported, drugs acting as inhibitors of FZD4/DVL binding reduce the amount of DVL-GFP recruited on the PM. […] Thus, we used the information gained from the binding mode of compound 2 to design a pharmacophore model that would lead to the identification of new DVL1 PDZ binders. At the same time, to better distinguish between the inhibitory activities of DVL1 and NHERF1, we added a new query to the pharmacophore model. Actually, comparing the PDZ structures of the studied proteins, we identified a significant difference. The upper part of the carboxylic binding loop was delimited by Tyr24, Ile79 and Val86 for NHERF1, while we observed Leu12, Val75 and Ile81, respectively, for DVL1. […] This peculiar feature of the DVL1 PDZ was included in our pharmacophore model by adding a hydrophobic query to obtain the required selectivity (Figure S1, Supplementary Materials). […] Thus, for each molecule, we obtained 10 conformations, and all of the proposed binding poses (7000 molecules per 10 conformations) were scored by the fitting to the pharmacophore model. […]

Experiment [2] deals with HA-tagged FZD4wt (human) (UniProt Q9ULV1).

The results in this text go back to publication PMC8909805, “Anticancer Activity of (S)-5-Chloro-3-((3,5-dimethylphenyl)sulfonyl)-N-(1-oxo-1-((pyridin-4-ylmethyl)amino)propan-2-yl)-1H-indole-2-carboxamide (RS4690), a New Dishevelled 1 Inhibitor” (Cancers, 2022).

Chain of HA-tagged FZD4wt (human) (Q9ULV1 37-537): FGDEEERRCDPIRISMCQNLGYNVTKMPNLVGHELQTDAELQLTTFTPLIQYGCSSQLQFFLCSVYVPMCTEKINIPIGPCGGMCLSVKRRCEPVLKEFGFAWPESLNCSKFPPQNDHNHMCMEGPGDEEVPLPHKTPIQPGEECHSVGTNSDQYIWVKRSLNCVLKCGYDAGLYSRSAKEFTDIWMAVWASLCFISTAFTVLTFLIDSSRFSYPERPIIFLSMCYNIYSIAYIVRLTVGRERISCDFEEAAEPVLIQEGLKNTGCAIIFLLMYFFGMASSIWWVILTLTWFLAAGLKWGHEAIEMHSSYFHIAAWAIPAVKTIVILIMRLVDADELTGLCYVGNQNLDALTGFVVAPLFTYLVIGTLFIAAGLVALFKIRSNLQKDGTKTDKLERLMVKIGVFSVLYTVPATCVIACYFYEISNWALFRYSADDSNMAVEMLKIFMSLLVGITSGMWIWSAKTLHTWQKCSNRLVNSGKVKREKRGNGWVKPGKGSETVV

For the molecule `O=C(Nc1ccc(CO)cc1)c1[nH]c2ccc(Cl)cc2c1Cc1ccccc1` [Compound 2, 3-benzyl-5-chloro-N-(4-(hydroxymethyl)phenyl)-1H-indole-2-carboxamide, reference compound], the EC50 (in general, the concentration giving half of the maximal effect) in experiment [1] was 5.1 ± 0.09 µM.

B1: GFP-tagged DVL-1 (natural protein)
chain: T1 sequence (O14640 1-695)
Consider B1, for which, in experiment [2], the EC50 of the small molecule 2 for inhibition of GFP-DVL-1 recruitment to the plasma membrane by HA-FZD4 in HEK293 cells (percentage of cells losing PM localisation; 'DVL1 Binding Inhibition') was found to be 5.1 µM, the EC50 of the small molecule (R)-1 for inhibition of GFP-DVL-1 recruitment to the plasma membrane by HA-FZD4 in HEK293 cells (percentage of cells losing PM localisation; 'DVL1 Binding Inhibition') is 29.5 µM and the EC50 of the small molecule (S)-1 for inhibition of GFP-DVL-1 recruitment to the plasma membrane by HA-FZD4 in HEK293 cells (percentage of cells losing PM localisation; 'DVL1 Binding Inhibition') was 0.49 µM.
